Like-named read-outs stand apart in the source and are kept apart here. *1 amine or outer side, *2 acyl side, *3 side chain or, on linkers, in order; H or OH if unused. Where a SMILES comes first, the peptide text is derived from it. Primed or numbered codes have the meaning given here. Where no end group is shown, it is not given here. [ ]: non-standard residue; d: D form. Atz = (S)-2-amino-3-(1H-1,2,3-triazol-4-yl)propanoyl residue, substituent (PEG) on triazole N1, O=C([C@H](Cc1cn([*:3])nn1)N[*:1])[*:2]; Oic = O=C(O)[C@@H]1C[C@@H]2CCCC[C@@H]2N1; Phe(4-Cl) = N[C@@H](Cc1ccc(Cl)cc1)C(=O)O; 1Nal = N[C@@H](Cc1cccc2ccccc12)C(=O)O; hArg = N=C(N)NCCCC[C@H](N)C(=O)O; Cha = N[C@@H](CC1CCCCC1)C(=O)O; 40K‑mPEG = 40 kDa methoxy-PEG; pGlu = O=C1CC[C@@H](C(=O)O)N1; PEG11′ = not defined here; PEG23′ = not defined here; PEG35′ = not defined here; PEG47′ = not defined here; Nle = CCCC[C@H](N)C(=O)O
How the values were obtained:
[1] = in vitro; conditions: rat
Procedure: Apelin peptides were spiked into freshly prepared mouse, rat, dog and human EDTA plasma to a final concentration of 5 μM. The plasma samples were then incubated at 37° C. over a period of 4 hr. Up to 8 time points were sampled to facilitate estimation of in vitro half life in plasma matrices. In a typical experiment, aliquot of 100 μL of plasma sample was taken from the incubation vial, followed by addition of 300 μL of MeOH containing internal standard. The quenched sample was centrifuged at 5500 g for 15 min after 15 min vortex in room temperature. The supernatant was then analyzed by high resolution LC-MS.

[2] = FIGURE 4B
Excerpt: (§1) Table printed on a drawing sheet, FIGURE 4B
Section band inside the table: Peptides with thioether linker and 20 kDa PEG modification
(§2) The patent's description of the figure: FIGS. 4A-B. In vitro stability of APJ agonists in plasma.
(§3) First reader's note: Rows 3 and 9 of the grid are section headings spanning all columns (linker type of the 20 kDa PEGylated peptides).

[3] = molecular target: T1, rat APJ receptor (Rattus norvegicus, UniProt Q9JHG3); assay: [35S]GTPγS assay, membranes from stable cell lines, rat APJ; format: biochemical; conditions: for in vitro potency relative to endogenous pyr apelin 13 (SEQ ID NO: 128) / in vitro potency, mono vs bis vs tetrakis 20 kDa PEG peptides: FIG. 11, in vitro rat GTPγS assay; for potency relative to monopeptide (SEQ ID NO: 494): FIG. 13, PEGylated bis-peptides on low molecular weight monodispersed PEG
T1 construct: expressed in transfected cells; CHO is named only for the cAMP assay
T1 sequence (Q9JHG3 1-377): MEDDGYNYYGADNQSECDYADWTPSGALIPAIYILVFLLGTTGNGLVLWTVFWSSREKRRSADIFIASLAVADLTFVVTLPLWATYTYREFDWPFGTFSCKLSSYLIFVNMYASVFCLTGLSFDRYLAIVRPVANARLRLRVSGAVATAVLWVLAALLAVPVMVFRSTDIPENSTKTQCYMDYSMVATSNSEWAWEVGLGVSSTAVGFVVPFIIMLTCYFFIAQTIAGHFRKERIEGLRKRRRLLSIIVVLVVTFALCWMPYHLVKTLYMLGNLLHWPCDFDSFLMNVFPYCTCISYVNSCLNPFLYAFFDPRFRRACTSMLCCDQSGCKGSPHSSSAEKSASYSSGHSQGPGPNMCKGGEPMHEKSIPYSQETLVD
Procedure: To assay for GTP, membranes were prepared from stable cell lines and used to determine the efficacy/potency of the modified peptides. The optimal experimental conditions for the concentrations of GDP, MgCl2 and NaCl in the assay buffer were initially determined. The membranes were incubated with modified peptides in the assay buffer. The reaction was initiated by addition of [^35S] GTPγS in the absence or presence of peptides and incubated at room temperature for 90 min. […] Bound [^35S] GTPγS was separated from free radiolabel by filtration. The filter bound radioactivity was determined by liquid scintillation counting.
A series of PEGylated peptides were prepared and screened in vitro to explore the effects of PEG size and peptide valency on potency and efficacy in the GTPγS assay. In the assay 20 kDA and 40 kDA PEG were compared (FIG. 10).
Additionally mono- and multivalent bis, and tetrakis-peptide conjugated PEGS were prepared to explore peptide valency. […]

[4] = FIGURE 4B; remark: listed apart in the source
Excerpt: as §1
Section band inside the table: Peptides with triazole linker and 20 kDa PEG modification
as §2, §3

Compound: CCCC[C@H](NC(=O)[C@@H]1CCCN1C(=O)CNC(=O)[C@H](CCCCN)NC(=O)[C@H](Cc1c[nH]cn1)NC(=O)[C@H](CO)NC(=O)[C@H](CC1CCCCC1)NC(=O)[C@H](CCCCNC(=N)N)NC(=O)[C@@H]1CCCN1C(=O)[C@H](CCCNC(=N)N)NC(=O)[C@@H]1CCC(=O)N1)C(=O)N[C@@H](Cc1ccc(Cl)cc1)C(=O)O [compound 32] ([pGlu]RP[hArg][Cha]SHKGP[Nle][Phe(4-Cl)]-OH; C-terminus assumed)
- remaining at 1 h, 5 μM ([1]; rat EDTA plasma): 64.6%

Compound: Thiopropionyl(20K-mPEG)- KFRRQRP[hArg][Cha]SHKG[Oic][Nle]P[4-Cl-F] [compound 44]
- in vitro plasma stability (t1/2, min) | DOG [2]: 172 min
- in vitro plasma stability (t1/2, min) | HUMAN [2]: 142 min
- in vitro plasma stability (t1/2, min) | MOUSE [2]: 37 min
- in vitro plasma stability (t1/2, min) | RAT [2]: 180 min

Compound: SEQ ID NO: 130: 20 kDa PEG-bis(Atz-KFRRQRP[hArg][Cha]SHKG[Oic][Nle]P[4-Cl—F]) (KFRRQRP[hArg][Cha]SHKG[Oic][Nle]P[Phe(4-Cl)]; not fully specified (N-terminus); also: 20 kDa PEG carries two peptide copies)
- in vitro potency relative to endogenous pyr apelin 13 (SEQ ID NO: 128) [3]: significantly more potent
- in vitro potency, mono vs bis vs tetrakis 20 kDa PEG peptides [3]: approximately equipotent

Compound: Atz(20K-mPEG)-LRP[hArg][Cha]SHKG[Oic][Nle]P[4-Cl-F] [compound 50]
- in vitro plasma stability (t1/2, min) | HUMAN [4]: 264 min
- in vitro plasma stability (t1/2, min) | MOUSE [4]: 64 min
- in vitro plasma stability (t1/2, min) | RAT [4]: 256 min

Compound: CCCC[C@H](NC(=O)[C@@H]1C[C@@H]2CCCC[C@@H]2N1C(=O)CNC(=O)[C@H](CCCCN)NC(=O)[C@H](Cc1cn(CCOCCOCCOCCOCCOCCOCCOCCOCCOCCOCCN)nn1)NC(=O)[C@H](Cc1ccccc1)NC(=O)[C@H](CC1CCCCC1)NC(=O)[C@H](CCCCNC(=N)N)NC(=O)[C@@H]1CCCN1C(=O)[C@H](CCCNC(=N)N)NC(=O)[C@@H]1CCC(=O)N1)C(=O)N[C@H](Cc1ccccc1)C(=O)O [compound 33]
- remaining at 1 h, 5 μM ([1]; plasma): 66%

Compound: Thiopropionyl(20K-mPEG)- RQRP[hArg][Cha]SHKG[Oic][Nle]P[4-Cl-F] [compound 47]
- in vitro plasma stability (t1/2, min) | DOG [2]: 279 min
- in vitro plasma stability (t1/2, min) | HUMAN [2]: 300 min
- in vitro plasma stability (t1/2, min) | MOUSE [2]: 41 min

Compound: SEQ ID NO: 134: PEGylated bis-peptide, 1 kDa PEG conjugate ([PEG23′][Atz]KFRRQRP[hArg][Cha]SHKG[Oic][Nle]P[Phe(4-Cl)]; not fully specified (residue 1); numbers in words are those of the source; also: bis-peptide: two peptide chains joined through PEG23 on Atz)
- potency relative to monopeptide (SEQ ID NO: 494) [3]: increased potency

Compound: SEQ ID NO: 135: PEGylated bis-peptide, 1.7 kDa PEG conjugate ([PEG35′][Atz]KFRRQRP[hArg][Cha]SHKG[Oic][Nle]P[Phe(4-Cl)]; not fully specified (residue 1); numbers in words are those of the source; also: bis-peptide: two peptide chains joined through PEG35 on Atz)
- potency relative to monopeptide (SEQ ID NO: 494) [3]: increased potency

Compound: SEQ ID NO: 129: 20 kDa PEG-mono(Atz-KFRRQRP[hArg][Cha]SHKG[Oic][Nle]P[4-Cl—F]) (XKFRRQRPRLSHKGPMPF; not fully specified; 20 kDa PEG, Atz linker; non-natural residues; source: /note="N-term may or may not be modified by conjugation linker, an acyl group, an aryl group, an alkyl group, NPeg11, a PEG derivative or other serum half-life prolonging group"; MOD_RES (1)..(1): Atz)
- in vitro potency relative to endogenous pyr apelin 13 (SEQ ID NO: 128) [3]: significantly more potent
- in vitro potency, mono vs bis vs tetrakis 20 kDa PEG peptides [3]: approximately equipotent

Compound: CCCC[C@H](NC(=O)[C@@H]1CCCN1C(=O)CNC(=O)[C@H](CCCCN)NC(=O)[C@H](Cc1cn(CCOCCOCCOCCOCCOCCOCCOCCOCCOCCOCCN)nn1)NC(=O)[C@H](Cc1ccccc1)NC(=O)[C@H](CC(C)C)N(C)C(=O)[C@H](CCCCNC(=N)N)NC(=O)[C@@H]1CCCN1C(=O)[C@H](CCCNC(=N)N)NC(=O)[C@@H]1CCC(=O)N1)C(=O)N[C@H](Cc1ccccc1)C(=O)O [compound 29]
- remaining at 1 h, 5 μM ([1]; plasma): 50%

Compound: SEQ ID NO: 474: 40 Kda PEGylated peptide compared with the 20 kDa PEGylated peptide SEQ ID NO: 24 ({40K‑mPEG-Thiopropionyl}-KFRRQRP[hArg][Cha]SHKG[Oic][Nle]P[Phe(4-Cl)]-OH)
- Emax relative to the 20 kDa PEGylated peptide ([3]; FIG. 10): 84 % of 20 kDa

Compound: CCCC[C@H](NC(=O)[C@@H]1C[C@@H]2CCCC[C@@H]2N1C(=O)CNC(=O)[C@H](CCCCN)NC(=O)[C@H](Cc1c[nH]cn1)NC(=O)[C@H](Cc1cn(CCOCCOCCOCCOCCOCCOCCOCCOCCOCCOCCN)nn1)NC(=O)[C@H](CC(C)C)N(C)C(=O)[C@H](CCCCNC(=N)N)NC(=O)[C@@H]1CCCN1C(=O)[C@H](CCCNC(=N)N)NC(=O)[C@@H]1CCC(=O)N1)C(=O)N1CCC[C@H]1C(=O)N[C@@H](Cc1ccc(Cl)cc1)C(=O)O [compound 36]
- remaining at 1 h, 5 μM ([1]; plasma): 88%

Compound: CCCC[C@H](NC(=O)[C@@H]1CCCN1C(=O)CNC(=O)[C@H](CCCCN)NC(=O)[C@H](Cc1c[nH]cn1)NC(=O)[C@H](CO)NC(=O)[C@H](CC1CCCCC1)NC(=O)[C@H](CCCCNC(=N)N)NC(=O)[C@@H]1CCCN1C(=O)[C@H](CCCNC(=N)N)NC(=O)[C@@H]1CCC(=O)N1)C(=O)N[C@@H](Cc1cccc2ccccc12)C(=O)O [compound 31] ([pGlu]RP[hArg][Cha]SHKGP[Nle][1Nal]-OH; C-terminus assumed)
- remaining at 1 h, 5 μM ([1]; rat EDTA plasma): 63%

Compound: SEQ ID NO: 131: 20 kDa PEG-tetrakis(Atz-KFRRQRP[hArg][Cha]SHKG[Oic][Nle]P[4-Cl—F]) (KFRRQRP[hArg][Cha]SHKG[Oic][Nle]P[Phe(4-Cl)]; not fully specified (N-terminus); also: 20 kDa PEG carries four peptide copies)
- in vitro potency relative to endogenous pyr apelin 13 (SEQ ID NO: 128) [3]: significantly more potent
- in vitro potency, mono vs bis vs tetrakis 20 kDa PEG peptides [3]: approximately equipotent

Compound: SEQ ID NO: 133: PEGylated bis-peptide, the shortest PEG conjugate (~0.6 kDa PEG) ([PEG11′][Atz]KFRRQRP[hArg][Cha]SHKG[Oic][Nle]P[Phe(4-Cl)]; not fully specified (residue 1); numbers in words are those of the source; also: bis-peptide: two peptide chains joined through PEG11 on Atz)
- potency relative to monopeptide (SEQ ID NO: 494) [3]: reduced potency

Compound: SEQ ID NO: 136: PEGylated bis-peptide, 2.2 kDa PEG conjugate ([PEG47′][Atz]KFRRQRP[hArg][Cha]SHKG[Oic][Nle]P[Phe(4-Cl)]; not fully specified (residue 1); numbers in words are those of the source; also: bis-peptide: two peptide chains joined through PEG47 on Atz)
- potency relative to monopeptide (SEQ ID NO: 494) [3]: increased potency

Compound: CCCC[C@H](NC(=O)[C@@H]1C[C@@H]2CCCC[C@@H]2N1C(=O)CNC(=O)[C@H](CCCCN)NC(=O)[C@H](Cc1c[nH]cn1)NC(=O)[C@H](Cc1cn(CCOCCOCCOCCOCCOCCOCCOCCOCCOCCOCCN)nn1)NC(=O)[C@H](CC1CCCCC1)NC(=O)[C@H](CCCCNC(=N)N)NC(=O)[C@@H]1CCCN1C(=O)[C@H](CCCNC(=N)N)NC(=O)[C@@H]1CCC(=O)N1)C(=O)N1CCC[C@H]1C(=O)N[C@@H](Cc1ccc(Cl)cc1)C(=O)O [compound 34]
- remaining at 1 h, 5 μM ([1]; plasma): 72%

Compound: Thiopropionyl(20K-mPEG)- QRP[hArg][Cha]SHKG[Oic][Nle]P[4-Cl-F] [compound 48]
- in vitro plasma stability (t1/2, min) | DOG [2]: 219 min
- in vitro plasma stability (t1/2, min) | HUMAN [2]: 307 min
- in vitro plasma stability (t1/2, min) | MOUSE [2]: 53 min
- in vitro plasma stability (t1/2, min) | RAT [2]: 303 min

Compound: CCCC[C@H](NC(=O)[C@@H]1C[C@@H]2CCCC[C@@H]2N1C(=O)CNC(=O)[C@H](CCCCN)NC(=O)[C@H](Cc1c[nH]cn1)NC(=O)[C@H](Cc1cn(CCOCCOCCOCCOCCOCCOCCOCCOCCOCCOCCN)nn1)NC(=O)[C@H](CC(C)C)N(C)C(=O)[C@H](CCCCNC(=N)N)NC(=O)[C@@H]1CCCN1C(=O)[C@H](CCCNC(=N)N)NC(=O)[C@@H]1CCC(=O)N1)C(=O)N[C@@H](Cc1ccc(Cl)cc1)C(=O)O [compound 35]
- remaining at 1 h, 5 μM ([1]; plasma): 82%

Reference: US20160067347A1, “APJ RECEPTOR AGONISTS AND USES THEREOF” (AMGEN INC., priority 2012, published 2016)
